In US20230047413A1 (Janssen / Centocor, published 2023):

Legend:
[1] = molecular target: T1, Peptide-4 (human, phosphoserine 210, phosphothreonine 217 (tau 2N4R numbering); SCBiot and dPEG4 at the N-terminus; amide at the C-terminus); assay: SPR ProteOn, peptide captured, Fab as analyte; range of n=2; lower end of n=2 range
Procedure: (§1) The binding affinity of PT3 Fab towards each of the fourteen tau phosphopeptides shown in Table 6 was assessed by surface plasmon resonance (SPR) using a Bio-Rad ProteOn XPR36. Peptides were synthesized by standard chemical methods (New England Peptide) with short-chain biotin and a PEG4 moiety at the N-terminus. Biotinylated peptide was captured on a neutravidin-coated NLC biosensor chip and PT3 Fab was flowed over the surface to measure kinetic parameters.
(§2) All experiments were performed at 25° C. using phosphate buffered saline, pH 7.4, 0.005% Tween 20 (PBST) as both running buffer and sample dilution buffer. Prior to running samples, the NLC chip was conditioned by running PBST over the chip surface for 1 h. Approximately 5-10 RU of peptide was captured on the chip surface by diluting peptide to 10 ng/mL in PBST and injecting over the flow channels at 30 μL/min for 100 s. Serial dilutions of PT3 Fab (1.1-90 nM) were analyzed and, with the exception of Peptide-8, each concentration was measured in duplicate. After capture of peptides, the antibody titration was injected at 60 μL/min for 3 minutes (association phase), followed by 300 s of buffer only (dissociation phase).
(§3) The data were double referenced by subtraction of the interspot response and the curves generated by the buffer-only injection. The chip surface was regenerated using a single injection of 0.85% phosphoric acid at 30 μL/min for 100 s contact time, followed by four injections of running buffer before the next antibody titration injection. The data processing and kinetic analysis were done using the instrument software. The data were analyzed using a simple Langmuir 1:1 binding model.

[2] = molecular target: Peptide-5 (human, phosphoserine 210, phosphoserine 214, phosphothreonine 217 (tau 2N4R numbering); SCBiot and dPEG4 at the N-terminus; amide at the C-terminus); assay: as above
Peptide-5 (human, phosphoserine 210, phosphoserine 214, phosphothreonine 217 (tau 2N4R numbering); SCBiot and dPEG4 at the N-terminus; amide at the C-terminus), sequence (peptide, as listed by the source): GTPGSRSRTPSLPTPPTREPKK
Procedure: as §1, §2, §3

[3] = molecular target: T2, Peptide-6 (human, phosphothreonine 217 (tau 2N4R numbering); SCBiot and dPEG4 at the N-terminus; amide at the C-terminus); assay: as above
Procedure: as §1, §2, §3

[4] = molecular target: T3, Peptide-7 (human, phosphothreonine 212, phosphoserine 214 (tau 2N4R numbering); SCBiot and dPEG4 at the N-terminus; amide at the C-terminus); assay: as above
Procedure: as §1, §2, §3

[5] = molecular target: T4, Peptide-2 (human, phosphothreonine 212, phosphothreonine 217 (tau 2N4R numbering); short chain biotin (SCBiot) and dPEG4 at the N-terminus; amide at the C-terminus); assay: as above
T4 construct: also called pT212/pT217-tau peptide (Peptide-2)
Procedure: as §1, §2, §3

[6] = molecular target: T4, Peptide-2; assay: SPR ProteOn, peptide captured, Fab as analyte; range of n=2; Peptide-2 (pT212/pT217); Table 12 run; lower end of n=2 range
Procedure: A subset of HFA-PT3 monoclonal antibody variants, selected based on biophysical characterization and ELISA binding to PHF, were analyzed by Surface Plasmon Resonance (SPR) with a ProteOn XPR36 for binding to the following phosphopeptides: pT212/pT217-tau peptide (Peptide-2, SEQ ID NO: 48) and pT212-tau peptide (Peptide-8, SEQ ID NO: 54). All experiments were performed at 25° C. using PBST, pH 7.4, (Bio-Rad Cat#176-2720) as both running buffer and sample dilution buffer.
Fab/peptide binding. Biotinylated peptide was captured on a neutravidin-coated NLC biosensor chip pre-conditioned with PBST, and Fab was flowed over the surface to measure kinetic parameters. Approximately 5-10 RU of peptide was captured on the chip surface by diluting peptide to 10 ng/mL in PBST and injecting over the flow channels at 30 μL/min for 100 s. Serial dilutions of PT3 Fab (1.1 nM to 90 nM) were injected at 60 μL/min for 3 minutes (association phase), followed by 300 s of buffer only (dissociation phase).
Data were double referenced by subtraction of the interspot response, and the curves generated by the buffer only injection. The chip surface was regenerated with 0.85% phosphoric acid, followed by PBST injection before the next antibody titration injection. Data processing and analysis were performed using instrument software. The data were fit using a simple Langmuir 1:1 binding model.

[7] = molecular target: T3, Peptide-7; assay: SPR ProteOn, peptide captured, Fab as analyte; range of n=2; Peptide-7 (pT212/pS214); upper end of n=2 range
Procedure: as §1, §2
(§4) The data were double referenced by subtraction of the interspot response and the curves generated by the buffer-only injection. […] The data were analyzed using a simple Langmuir 1:1 binding model.

[8] = molecular target: T2, Peptide-6; assay: SPR ProteOn, peptide captured, Fab as analyte; Peptide-6, phosphorylated at 217 only
Procedure: as §1, §2, §4

[9] = molecular target: T1, Peptide-4; assay: SPR ProteOn, peptide captured, Fab as analyte; range of n=2
Procedure: as §1, §2, §3

[10] = molecular target: T4, Peptide-2; assay: as above
Procedure: as §1, §2, §3

[11] = molecular target: T5, Peptide-1 (human, phosphothreonine 212, phosphoserine 214, phosphothreonine 217 (tau 2N4R numbering); short chain biotin (SCBiot) and dPEG4 at the N-terminus; amide at the C-terminus); assay: SPR ProteOn, peptide captured, Fab as analyte; range of n=2; Peptide-1 (pT212/pS214/pT217); upper end of n=2 range
T5 construct: also called tau peptide phosphorylated at T212/S214/T217
Procedure: as §1, §2, §4

koff [1]: 0.00619 s⁻¹
kon [1]: 922000 M⁻¹ s⁻¹
koff [2]: 0.00569 s⁻¹
kon [2]: 545000 M⁻¹ s⁻¹
koff [3]: 0.00606 s⁻¹
kon [3]: 524000 M⁻¹ s⁻¹
koff [4]: 0.00549 s⁻¹
kon [4]: 357000 M⁻¹ s⁻¹
kon [5]: 546000 M⁻¹ s⁻¹
Kd [6]: 0.0738 to 0.101 nM
Kd [7]: 11.3 to 15.7 nM
Kd [8]: 11.4 nM
Kd [9]: 6.48 to 6.71 nM
Kd [10]: 0.09 to 0.45 nM
koff [10]: 9.1e-05 s⁻¹
Kd [11]: 0.14 to 0.38 nM
B1: PT3 Fab (B187) (Fab, V domains shown)
VH: EVKLVESGGDLVKPGGSLKLSCAASGFTFSSYAMSWVRQNPEKRLEWVASISKGGNTYYPNSVKGRFTISRDNARNILYLQMSSLRSEDTALYYCARGWGDYGWFAYWGQVTLVTVSA
VL: DIKMTQSPSSMYASLGERVTITCKASQDINRYLNWFQQKPGKSPKTLIYRANRLLDGVPSRFSGSGSGQDYSLTISSLDYEDMGIYYCLQYDEFPLTFGDGTKLELK
notes: Chimeric Fab: mouse variable regions, human IgG1/kappa constant region, 6xHis tag at the C-terminus of the heavy chain; also called mouse parental Fab of PT3
